Source: US20230381281A1, “PHARMACEUTICAL COMPOSITION COMPRISING GLUCAGON/GLP-1/GIP TRIPLE AGONIST OR LONG-ACTING CONJUGATE THEREOF FOR PREVENTING OR TREATING LUPUS-RELATED DISEASES” (HANMI PHARM. CO., LTD., priority 2020, published 2023)
Bridge positions count the residues as written; N and C are the ends. Square brackets hold non-standard residues; d marks the D form. Ends that are not written are not given here. Aib = CC(C)(N)C(=O)O

How the values were obtained:
[1] = molecular target: T1, human GLP-1 receptor (Homo sapiens, UniProt P43220); assay: In vitro cAMP activity in human GLP-1 receptor-expressing CHO cells (LANCE cAMP kit); assay type: cell-based; conditions: long-acting conjugates; relative titer from cAMP EC50 compared to human GLP-1
T1 construct: expressed in transfected cells; host or cells: Chinese hamster ovary (CHO)
Protocol: (§1) In order to measure the activity of the triple agonists and long-acting conjugates thereof prepared according to Examples 1 and 2, the in-vitro cell activity was measured using cell lines transformed with GLP-1 receptor, glucagon (GCG) receptor, and GIP receptor, respectively.
(§2) The cell lines were transformed to express human GLP-1 receptor, human GCG receptor and human GIP receptor genes in Chinese hamster ovary (CHO), respectively, and are suitable for measuring the activities of GLP-1, GCG, and GIP. Therefore, the activity for each part was measured using each transformed cell line.
(§3) To measure the GLP-1 activity of the triple agonists and long-acting conjugates prepared according to Examples 1 and 2, human GLP-1 was diluted from 50 nM to […] by 4-fold serial dilution, and the triple agonists and long-acting conjugates thereof prepared according to Examples 1 and 2 were diluted from 400 nM to 0.00038 nM by 4-fold serial dilution. The culture medium was removed from the cultured human GLP-1 receptor-expressing CHO cells, 5 μl of each of the serially diluted materials was added to the cells, and then 5 μl of buffer containing cAMP antibody was added to the cells, followed by 15 minutes of incubation at room temperature. Then, cells were lysed by adding 10 μl of detection mix containing cell lysis buffer, and reacted at room temperature for 90 minutes. The cell lysate after the reaction had been completed, was applied to the LANCE cAMP kit (PerkinElmer, USA) to calculate the EC50 value through the accumulated cAMP, and then compared with each other.

[2] = molecular target: T2, human GCG receptor (Homo sapiens, UniProt P47871); assay: In vitro cAMP activity in human GCG receptor-expressing CHO cells (LANCE cAMP kit); assay type: cell-based; conditions: for In vitro activity compared to native peptide (%) vs Glucagon: long-acting conjugates, relative titer from cAMP EC50 compared to human GCG; for activity on the glucagon receptor: statement in words in the description
T2 construct: expressed in transfected cells; host or cells: Chinese hamster ovary (CHO)
Protocol: as §1, §2
as §3, with “GCG” for “GLP-1”

[3] = molecular target: T3, human GIP receptor (Homo sapiens, UniProt P48546); assay: In vitro cAMP activity in human GIP receptor-expressing CHO cells (LANCE cAMP kit); assay type: cell-based; conditions: long-acting conjugates; relative titer from cAMP EC50 compared to human GIP
T3 construct: expressed in transfected cells; host or cells: Chinese hamster ovary (CHO)
T3 sequence (P48546 22-466): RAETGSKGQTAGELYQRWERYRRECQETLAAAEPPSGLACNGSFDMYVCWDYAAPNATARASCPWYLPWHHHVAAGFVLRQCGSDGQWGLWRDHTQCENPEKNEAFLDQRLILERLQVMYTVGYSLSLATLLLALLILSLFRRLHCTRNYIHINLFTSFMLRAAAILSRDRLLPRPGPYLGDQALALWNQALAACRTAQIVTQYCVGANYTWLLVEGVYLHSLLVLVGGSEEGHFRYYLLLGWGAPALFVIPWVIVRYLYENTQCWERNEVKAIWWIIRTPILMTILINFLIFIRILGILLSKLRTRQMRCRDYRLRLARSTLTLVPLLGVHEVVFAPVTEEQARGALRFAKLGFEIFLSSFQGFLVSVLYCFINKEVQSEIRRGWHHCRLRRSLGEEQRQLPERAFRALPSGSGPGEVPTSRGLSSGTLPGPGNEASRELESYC
Protocol: as §1, §2
as §3, with “measure the GIP activity of” for “measure the GLP-1 activity of”, “long-acting conjugates thereof prepared according” for “long-acting conjugates prepared according”, “2, human GIP was diluted” for “2, human GLP-1 was diluted”, “cultured human GIP receptor-expressing CHO” for “cultured human GLP-1 receptor-expressing CHO”

[4] = molecular target: human GLP-1 receptor (human, UniProt P43220 24-463); assay: cell-based or functional assay
[5] = molecular target: human GCG receptor (human, UniProt P47871 26-477); assay: cell-based or functional assay
[6] = molecular target: T4, human GIP receptor (human, UniProt P48546 22-466); assay: cell-based or functional assay
T4 sequence (looked up): T3 sequence (P48546 22-466)

T1 sequence (P43220 24-463): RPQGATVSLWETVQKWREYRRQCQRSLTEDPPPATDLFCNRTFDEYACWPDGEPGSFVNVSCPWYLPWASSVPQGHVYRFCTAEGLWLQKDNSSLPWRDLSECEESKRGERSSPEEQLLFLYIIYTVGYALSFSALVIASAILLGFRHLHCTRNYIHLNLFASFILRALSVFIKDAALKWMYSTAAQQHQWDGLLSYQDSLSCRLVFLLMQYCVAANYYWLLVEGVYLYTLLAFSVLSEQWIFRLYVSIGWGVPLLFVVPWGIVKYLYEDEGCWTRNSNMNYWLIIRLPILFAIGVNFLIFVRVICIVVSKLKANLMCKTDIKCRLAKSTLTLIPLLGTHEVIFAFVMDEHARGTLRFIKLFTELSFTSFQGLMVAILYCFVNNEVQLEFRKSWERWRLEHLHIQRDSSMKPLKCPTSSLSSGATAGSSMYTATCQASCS
Chain of human GCG receptor (human, UniProt P47871 26-477) (P47871 26-477): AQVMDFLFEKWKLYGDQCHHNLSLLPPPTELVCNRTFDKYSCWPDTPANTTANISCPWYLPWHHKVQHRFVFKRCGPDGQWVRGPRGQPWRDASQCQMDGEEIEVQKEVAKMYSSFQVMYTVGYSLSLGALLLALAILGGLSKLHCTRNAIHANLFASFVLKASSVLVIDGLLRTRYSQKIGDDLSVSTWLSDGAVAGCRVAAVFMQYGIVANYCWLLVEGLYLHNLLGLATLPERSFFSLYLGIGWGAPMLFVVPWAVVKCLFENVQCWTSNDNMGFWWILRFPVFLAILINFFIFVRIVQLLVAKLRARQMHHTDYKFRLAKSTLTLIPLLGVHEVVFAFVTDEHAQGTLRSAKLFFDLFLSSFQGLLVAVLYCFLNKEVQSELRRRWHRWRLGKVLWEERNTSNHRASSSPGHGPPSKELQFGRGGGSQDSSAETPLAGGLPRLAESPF
T2 sequence (P47871 26-477): as above

Which results are given for “22 (Y[Aib]QGTFTSDYSKCLDEKRAKEFVQWLLDHHPSSGQPPPS; bridge 16-20) [compound 22]”?
In vitro activity compared to native peptide (%) vs GLP-1 [1]: 0.1%; In vitro activity compared to native peptide (%) vs Glucagon [2]: 0.9%; activity on the glucagon receptor [2]: very high activity; In vitro activity compared to native peptide (%) vs GIP [3]: 0.5%

How did the “activity on the glucagon receptor” value [2] turn out when “97 (Y[Aib]QGTFTSDYSKYLDEKRAKEFVQWLLDCHPSSGQPPPS; bridge 16-20) [compound 97]” was run?
The value was “very high activity”.

For “77 (Y[Aib]QGTFTSDYSKYLDEKAAKDFVQWLLDHHPSSGQPPPSC; bridge 16-20) [compound 77]”, which “In vitro activity compared to native peptide (%) vs GLP-1” value (“In vitro activity … (%) vs GLP-1” for short) [1] is on record?
Its value is 6.7%.

And the “In vitro activity compared to native peptide (%) vs Glucagon” value (“In vitro activity … (%) vs Glucagon” for short) [2]?
The value was 1.7%.

And the “In vitro activity compared to native peptide (%) vs GIP” value (“In vitro activity … (%) vs GIP” below) [3]?
The value was 6.6%.

With “43 (Y[Aib]QGTFTSDYSKYLDEKRAKEFVQWLLDHHCSSGQPPPS; bridge 16-20) [compound 43]” as the molecule, how does the “In vitro activity … (%) vs GLP-1” value [1] read?
The value was 2.1%.

And the “In vitro activity … (%) vs Glucagon” value [2]?
The value was 13.5%.

What about the “activity on the glucagon receptor” value [2] of the same molecule?
Its value is “very high activity”.

What about the “In vitro activity … (%) vs GIP” value [3] of the same molecule?
Its value is 0.6%.

For “66 (Y[Aib]QGTFTSDYSKYLDECRAKDFVQWLLDHHPSSGQPPPS; bridge 16-20) [compound 66]”, which “activity on the glucagon receptor” value [2] is on record?
Its value is “very high activity”.

With “21 (Y[Aib]QGTFTSDYSKYLDECRAKEFVQWLLDHHPSSGQPPPS; bridge 16-20) [compound 21]” as the molecule, how does the “In vitro activity … (%) vs GLP-1” value [1] read?
Its value is 0.1%.

What about the “In vitro activity … (%) vs Glucagon” value [2] of the same molecule?
The value was 1.6%.

What about the “activity on the glucagon receptor” value [2] of the same molecule?
Its value is “very high activity”.

And the “In vitro activity … (%) vs GIP” value [3]?
Its value is 0.2%.

“42 (Y[Aib]QGTFTSDYSKYLDEKRAKEFVQWLLDHHPSSGQPPPSC; bridge 16-20) [compound 42]” was tested. Which “In vitro activity … (%) vs GLP-1” value [1] did it give?
The value was 3.1%.

What about the “In vitro activity … (%) vs Glucagon” value [2] of the same molecule?
Its value is 23.1%.

And the “activity on the glucagon receptor” value [2]?
The value was “very high activity”.

And the “In vitro activity … (%) vs GIP” value [3]?
The value was 1.2%.

For “70 (Y[Aib]QGTFTSDYSKCLDEKRAKDFVQWLLDHHPSSGQPPPS; bridge 16-20) [compound 70]”, which “activity on the glucagon receptor” value [2] is on record?
Its value is “very high activity”.

What does the source list for “96 (Y[Aib]QGTFTSDYSKYLDEKRAKEFVQWLLDHCPSSGQPPPS; bridge 16-20) [compound 96]”?
In vitro activity compared to native peptide (%) vs GLP-1 [1]: 0.3%; In vitro activity compared to native peptide (%) vs Glucagon [2]: 4.0%; activity on the glucagon receptor [2]: very high activity; In vitro activity compared to native peptide (%) vs GIP [3]: 0.3%

“50 (H[Aib]QGTFTSDYSKYLDEKRAKEFVQWLLDHHPSSGQPPPSC; bridge 16-20) [compound 50]” was tested. Which “In vitro activity … (%) vs GLP-1” value [1] did it give?
The value was 15.4%.

And the “In vitro activity … (%) vs Glucagon” value [2]?
Its value is 6.9%.

What about the “In vitro activity … (%) vs GIP” value [3] of the same molecule?
Its value is 0.7%.

B1: Triple agonist of SEQ ID NO: 28 (peptide)
peptide: H[Aib]QGTFTSDYSKYLDEKRAQEFVCWLLAQKGKKNDWKHNIT
For B1, which “In vitro activity … (%) vs GLP-1” value [4] is on record?
The value was 17.2%.

What about the “In vitro activity … (%) vs Glucagon” value [5] of the same molecule?
The value was 1.6%.

What about the “In vitro activity … (%) vs GIP” value [6] of the same molecule?
The value was < 0.1%.

B2: Triple agonist of SEQ ID NO: 29 (peptide)
peptide: H[Aib]QGTFTSDYSKYLDEKAAKEFVQWLLNTC
modifications: bridge 16-20
Which “In vitro activity … (%) vs GLP-1” value [4] does the source give for B2 here?
The value was 38.5%.

And the “In vitro activity … (%) vs Glucagon” value [5]?
Its value is 6%.

And the “In vitro activity … (%) vs GIP” value [6]?
The value was < 0.1%.

B3: Triple agonist of SEQ ID NO: 25 (peptide)
peptide: H[Aib]QGTFTSDCSKYLDERAAQDFVQWLLDGGPSSGAPPPS
Which “In vitro activity … (%) vs GLP-1” value [4] does the source give for B3 here?
Its value is 82.6%.

And the “In vitro activity … (%) vs Glucagon” value [5]?
The value was 0.1%.

And the “In vitro activity … (%) vs GIP” value [6]?
The value was < 0.1%.

B4: Triple agonist of SEQ ID NO: 26 (peptide)
peptide: H[Aib]QGTFTSDCSKYLDSRAAQDFVQWLLDGGPSSGAPPPS
Which “In vitro activity … (%) vs GLP-1” value [4] does the source give for B4 here?
The value was 64.5%.

What about the “In vitro activity … (%) vs Glucagon” value [5] of the same molecule?
The value was 0.2%.

And the “In vitro activity … (%) vs GIP” value [6]?
The value was < 0.1%.

B5: Triple agonist of SEQ ID NO: 33 (peptide)
peptide: H[Aib]QGTFTSDYSIAMDEIHQKDFVNWLLAQKC
modifications: bridge 16-20
How did the “In vitro activity … (%) vs GLP-1” value [4] turn out when B5 was run?
Its value is 24.5%.

What about the “In vitro activity … (%) vs Glucagon” value [5] of the same molecule?
The value was < 0.1%.

What about the “In vitro activity … (%) vs GIP” value [6] of the same molecule?
The value was 10.4%.

B6: Triple agonist of SEQ ID NO: 27 (peptide)
peptide: H[Aib]QGTFTSDYSKYLDERACQDFVQWLLDQGGPSSGAPPPS
With B6 as the molecule, how does the “In vitro activity … (%) vs GLP-1” value [4] read?
The value was 83.1%.

And the “In vitro activity … (%) vs Glucagon” value [5]?
The value was 0.8%.

What about the “In vitro activity … (%) vs GIP” value [6] of the same molecule?
Its value is 0.9%.

B7: Triple agonist of SEQ ID NO: 30 (peptide)
peptide: H[Aib]QGTFTSDYSKYLDEKAQKEFVQWLLDTC
modifications: bridge 16-20
With B7 as the molecule, how does the “In vitro activity … (%) vs GLP-1” value [4] read?
Its value is 142%.

What about the “In vitro activity … (%) vs Glucagon” value [5] of the same molecule?
The value was 0.7%.

And the “In vitro activity … (%) vs GIP” value [6]?
The value was 0.8%.

B8: Triple agonist of SEQ ID NO: 3 (peptide)
peptide: H[Aib]QGTFTSDVSSYLLGQAAKQFIAWLVKGGGPSSGAPPPSC
Which “In vitro activity … (%) vs GLP-1” value [4] does the source give for B8 here?
The value was 1.8%.

And the “In vitro activity … (%) vs Glucagon” value [5]?
The value was < 0.1%.

What about the “In vitro activity … (%) vs GIP” value [6] of the same molecule?
The value was < 0.1%.

B9: Triple agonist of SEQ ID NO: 24 (peptide)
peptide: Y[Aib]QGTFTSDYSKYLDECRAKEFVQWLKNGGPSSGAPPPS
modifications: bridge 16-20
How did the “In vitro activity … (%) vs GLP-1” value [4] turn out when B9 was run?
Its value is 41.2%.

What about the “In vitro activity … (%) vs Glucagon” value [5] of the same molecule?
The value was 9.3%.

What about the “In vitro activity … (%) vs GIP” value [6] of the same molecule?
The value was < 0.1%.

B10: Triple agonist of SEQ ID NO: 32 (peptide)
peptide: H[Aib]QGTFTSDYSKYLDEKACKDFVQWLLDGGPSSGAPPPS
modifications: bridge 16-20
B10 was tested. Which “In vitro activity … (%) vs GLP-1” value [4] did it give?
The value was 151%.

And the “In vitro activity … (%) vs Glucagon” value [5]?
Its value is 1.7%.

What about the “In vitro activity … (%) vs GIP” value [6] of the same molecule?
The value was 8.8%.

B11: Triple agonist of SEQ ID NO: 31 (peptide)
peptide: H[Aib]QGTFTSDYSKYLDEKACKEFVQWLLAQ
modifications: bridge 16-20
Which “In vitro activity … (%) vs GLP-1” value [4] does the source give for B11 here?
The value was 135%.

What about the “In vitro activity … (%) vs Glucagon” value [5] of the same molecule?
Its value is 2.2%.

What about the “In vitro activity … (%) vs GIP” value [6] of the same molecule?
The value was 2.4%.
